Test system: mutant form of α-Gal A expressed in HEK-293 cells
Assay: HEK assay (GLP HEK / Migalastat Amenability Assay): α-Gal A activity in lysates of transiently transfected HEK-293 cells incubated with or without 10 μM migalastat
Type: cell-based, human
Conditions: for Absolute increase (% WT): 10 μM migalastat versus baseline; for Relative increase: 10 μM migalastat α-Gal A activity relative to baseline; for 10 μM migalastat α-Gal A activity (% WT): 5 days; for 10 μM migalastat α-Gal A activity (% WT) / Baseline α-Gal A activity (% WT): percentage of baseline wild-type α-Gal A activity; for 10 μM migalastat α-Gal A activity (% WT) / Baseline α-Gal A activity (% WT) / Baseline α-Gal A activity / 10 μM migalastat α-Gal A activity: mean ± SEM; for Baseline α-Gal A activity (% WT): absence of migalastat; for Baseline α-Gal A activity / 10 μM migalastat α-Gal A activity: lysates of HEK-293 cells transfected with the mutant form; for Baseline α-Gal A activity: incubated 5 days in the absence of migalastat; for 10 μM migalastat α-Gal A activity: incubated 5 days with 10 μM migalastat
Procedure: Such mutations or variants are also referred to herein as “HEK assay amenable” mutations or variants.
The α-Gal A activity is expressed as the nmoles of free 4-MU released per milligram of protein per hour (nmol/mg/hr).
In Table 7, values for the mean±standard error of the mean (SEM) were calculated. nmol/mg/hr indicates “nmoles of free 4-MU released per mg of protein per hour”. WT indicates “wild-type”. NC indicates “not calculable”. N/A indicates “not applicable”.

B1: A97T (protein)
chain: MQLRNPELHLGCALALRFLALVSWDIPGARALDNGLARTPTMGWLHWERFMCNLDCQEEPDSCISEKLFMEMAELMVSEGWKDAGYEYLCIDDCWMTPQRDSEGRLQADPQRFPHGIRQLANYVHSKGLKLGIYADVGNKTCAGFPGSFGYYDIDAQTFADWGVDLLKFDGCYCDSLENLADGYKHMSLALNRTGRSIVYSCEWPLYMWPFQKPNYTEIRQYCNHWRNFADIDDSWKSIKSILDWTSFNQERIVDVAGPGGWNDPDMLVIGNFGLSWNQQVTQMALWAIMAAPLFMSNDLRHISPQAKALLQDKDVIAINQDPLGKQGYQLRQGDNFEVWERPLSGLAWAVAMINRQEIGGPRSYTIAVASLGKGVACNPACFITQLLPVKRKLGFYEWTSRLRSHINPTGTVLLQLENTMQMSLKDLL
Absolute increase (% WT): 21.4 % WT
Relative increase: 1.8
10 μM migalastat α-Gal A activity (% WT): 50.9 ± 2.7 % WT
Baseline α-Gal A activity (% WT): 29.4 ± 2.2 % WT
Baseline α-Gal A activity: 11157 ± 776 nmol/mg/h
10 μM migalastat α-Gal A activity: 19875 ± 1502 nmol/mg/h

B2: P98L (protein)
chain: MQLRNPELHLGCALALRFLALVSWDIPGARALDNGLARTPTMGWLHWERFMCNLDCQEEPDSCISEKLFMEMAELMVSEGWKDAGYEYLCIDDCWMALQRDSEGRLQADPQRFPHGIRQLANYVHSKGLKLGIYADVGNKTCAGFPGSFGYYDIDAQTFADWGVDLLKFDGCYCDSLENLADGYKHMSLALNRTGRSIVYSCEWPLYMWPFQKPNYTEIRQYCNHWRNFADIDDSWKSIKSILDWTSFNQERIVDVAGPGGWNDPDMLVIGNFGLSWNQQVTQMALWAIMAAPLFMSNDLRHISPQAKALLQDKDVIAINQDPLGKQGYQLRQGDNFEVWERPLSGLAWAVAMINRQEIGGPRSYTIAVASLGKGVACNPACFITQLLPVKRKLGFYEWTSRLRSHINPTGTVLLQLENTMQMSLKDLL
Absolute increase (% WT): 19.6 % WT
Relative increase: 1.3
10 μM migalastat α-Gal A activity (% WT): 88.5 ± 6.3 % WT
Baseline α-Gal A activity (% WT): 69 ± 5.5 % WT
Baseline α-Gal A activity: 24223 ± 1555 nmol/mg/h
10 μM migalastat α-Gal A activity: 31835 ± 2399 nmol/mg/h

B3: Q99E (protein)
chain: MQLRNPELHLGCALALRFLALVSWDIPGARALDNGLARTPTMGWLHWERFMCNLDCQEEPDSCISEKLFMEMAELMVSEGWKDAGYEYLCIDDCWMAPERDSEGRLQADPQRFPHGIRQLANYVHSKGLKLGIYADVGNKTCAGFPGSFGYYDIDAQTFADWGVDLLKFDGCYCDSLENLADGYKHMSLALNRTGRSIVYSCEWPLYMWPFQKPNYTEIRQYCNHWRNFADIDDSWKSIKSILDWTSFNQERIVDVAGPGGWNDPDMLVIGNFGLSWNQQVTQMALWAIMAAPLFMSNDLRHISPQAKALLQDKDVIAINQDPLGKQGYQLRQGDNFEVWERPLSGLAWAVAMINRQEIGGPRSYTIAVASLGKGVACNPACFITQLLPVKRKLGFYEWTSRLRSHINPTGTVLLQLENTMQMSLKDLL
Absolute increase (% WT): 25.5 % WT
Relative increase: 1.4
10 μM migalastat α-Gal A activity (% WT): 95.8 ± 7.9 % WT
Baseline α-Gal A activity (% WT): 70.3 ± 4.1 % WT
Baseline α-Gal A activity: 25264 ± 1668 nmol/mg/h
10 μM migalastat α-Gal A activity: 34635 ± 3117 nmol/mg/h

B4: Q99L (protein)
chain: MQLRNPELHLGCALALRFLALVSWDIPGARALDNGLARTPTMGWLHWERFMCNLDCQEEPDSCISEKLFMEMAELMVSEGWKDAGYEYLCIDDCWMAPLRDSEGRLQADPQRFPHGIRQLANYVHSKGLKLGIYADVGNKTCAGFPGSFGYYDIDAQTFADWGVDLLKFDGCYCDSLENLADGYKHMSLALNRTGRSIVYSCEWPLYMWPFQKPNYTEIRQYCNHWRNFADIDDSWKSIKSILDWTSFNQERIVDVAGPGGWNDPDMLVIGNFGLSWNQQVTQMALWAIMAAPLFMSNDLRHISPQAKALLQDKDVIAINQDPLGKQGYQLRQGDNFEVWERPLSGLAWAVAMINRQEIGGPRSYTIAVASLGKGVACNPACFITQLLPVKRKLGFYEWTSRLRSHINPTGTVLLQLENTMQMSLKDLL
Absolute increase (% WT): 27.4 % WT
Relative increase: 1.4
10 μM migalastat α-Gal A activity (% WT): 93.4 ± 7.3 % WT
Baseline α-Gal A activity (% WT): 65.9 ± 5.1 % WT
Baseline α-Gal A activity: 23382 ± 1548 nmol/mg/h
10 μM migalastat α-Gal A activity: 33479 ± 2746 nmol/mg/h

B5: P98R (protein)
chain: MQLRNPELHLGCALALRFLALVSWDIPGARALDNGLARTPTMGWLHWERFMCNLDCQEEPDSCISEKLFMEMAELMVSEGWKDAGYEYLCIDDCWMARQRDSEGRLQADPQRFPHGIRQLANYVHSKGLKLGIYADVGNKTCAGFPGSFGYYDIDAQTFADWGVDLLKFDGCYCDSLENLADGYKHMSLALNRTGRSIVYSCEWPLYMWPFQKPNYTEIRQYCNHWRNFADIDDSWKSIKSILDWTSFNQERIVDVAGPGGWNDPDMLVIGNFGLSWNQQVTQMALWAIMAAPLFMSNDLRHISPQAKALLQDKDVIAINQDPLGKQGYQLRQGDNFEVWERPLSGLAWAVAMINRQEIGGPRSYTIAVASLGKGVACNPACFITQLLPVKRKLGFYEWTSRLRSHINPTGTVLLQLENTMQMSLKDLL
Absolute increase (% WT): 16.4 % WT
Relative increase: 1.3
10 μM migalastat α-Gal A activity (% WT): 85.8 ± 5.8 % WT
Baseline α-Gal A activity (% WT): 69.4 ± 4 % WT
Baseline α-Gal A activity: 24969 ± 1730 nmol/mg/h
10 μM migalastat α-Gal A activity: 31289 ± 2550 nmol/mg/h

B6: D101A (protein)
chain: MQLRNPELHLGCALALRFLALVSWDIPGARALDNGLARTPTMGWLHWERFMCNLDCQEEPDSCISEKLFMEMAELMVSEGWKDAGYEYLCIDDCWMAPQRASEGRLQADPQRFPHGIRQLANYVHSKGLKLGIYADVGNKTCAGFPGSFGYYDIDAQTFADWGVDLLKFDGCYCDSLENLADGYKHMSLALNRTGRSIVYSCEWPLYMWPFQKPNYTEIRQYCNHWRNFADIDDSWKSIKSILDWTSFNQERIVDVAGPGGWNDPDMLVIGNFGLSWNQQVTQMALWAIMAAPLFMSNDLRHISPQAKALLQDKDVIAINQDPLGKQGYQLRQGDNFEVWERPLSGLAWAVAMINRQEIGGPRSYTIAVASLGKGVACNPACFITQLLPVKRKLGFYEWTSRLRSHINPTGTVLLQLENTMQMSLKDLL
Absolute increase (% WT): 10.2 % WT
Relative increase: 1.5
10 μM migalastat α-Gal A activity (% WT): 34.1 ± 3.3 % WT
Baseline α-Gal A activity (% WT): 23.9 ± 3 % WT
Baseline α-Gal A activity: 10144 ± 1069 nmol/mg/h
10 μM migalastat α-Gal A activity: 14707 ± 1289 nmol/mg/h

B7: Q99P (protein)
chain: MQLRNPELHLGCALALRFLALVSWDIPGARALDNGLARTPTMGWLHWERFMCNLDCQEEPDSCISEKLFMEMAELMVSEGWKDAGYEYLCIDDCWMAPPRDSEGRLQADPQRFPHGIRQLANYVHSKGLKLGIYADVGNKTCAGFPGSFGYYDIDAQTFADWGVDLLKFDGCYCDSLENLADGYKHMSLALNRTGRSIVYSCEWPLYMWPFQKPNYTEIRQYCNHWRNFADIDDSWKSIKSILDWTSFNQERIVDVAGPGGWNDPDMLVIGNFGLSWNQQVTQMALWAIMAAPLFMSNDLRHISPQAKALLQDKDVIAINQDPLGKQGYQLRQGDNFEVWERPLSGLAWAVAMINRQEIGGPRSYTIAVASLGKGVACNPACFITQLLPVKRKLGFYEWTSRLRSHINPTGTVLLQLENTMQMSLKDLL
Absolute increase (% WT): 19.1 % WT
Relative increase: 3.3
10 μM migalastat α-Gal A activity (% WT): 28 ± 2.4 % WT
Baseline α-Gal A activity (% WT): 8.8 ± 1.2 % WT
Baseline α-Gal A activity: 3034 ± 340 nmol/mg/h
10 μM migalastat α-Gal A activity: 9885 ± 794 nmol/mg/h

B8: P98H (protein)
chain: MQLRNPELHLGCALALRFLALVSWDIPGARALDNGLARTPTMGWLHWERFMCNLDCQEEPDSCISEKLFMEMAELMVSEGWKDAGYEYLCIDDCWMAHQRDSEGRLQADPQRFPHGIRQLANYVHSKGLKLGIYADVGNKTCAGFPGSFGYYDIDAQTFADWGVDLLKFDGCYCDSLENLADGYKHMSLALNRTGRSIVYSCEWPLYMWPFQKPNYTEIRQYCNHWRNFADIDDSWKSIKSILDWTSFNQERIVDVAGPGGWNDPDMLVIGNFGLSWNQQVTQMALWAIMAAPLFMSNDLRHISPQAKALLQDKDVIAINQDPLGKQGYQLRQGDNFEVWERPLSGLAWAVAMINRQEIGGPRSYTIAVASLGKGVACNPACFITQLLPVKRKLGFYEWTSRLRSHINPTGTVLLQLENTMQMSLKDLL
Absolute increase (% WT): 22.5 % WT
Relative increase: 1.4
10 μM migalastat α-Gal A activity (% WT): 83.4 ± 4.6 % WT
Baseline α-Gal A activity (% WT): 60.8 ± 3.1 % WT
Baseline α-Gal A activity: 21896 ± 1232 nmol/mg/h
10 μM migalastat α-Gal A activity: 29920 ± 1808 nmol/mg/h

B9: Q99R (protein)
chain: MQLRNPELHLGCALALRFLALVSWDIPGARALDNGLARTPTMGWLHWERFMCNLDCQEEPDSCISEKLFMEMAELMVSEGWKDAGYEYLCIDDCWMAPRRDSEGRLQADPQRFPHGIRQLANYVHSKGLKLGIYADVGNKTCAGFPGSFGYYDIDAQTFADWGVDLLKFDGCYCDSLENLADGYKHMSLALNRTGRSIVYSCEWPLYMWPFQKPNYTEIRQYCNHWRNFADIDDSWKSIKSILDWTSFNQERIVDVAGPGGWNDPDMLVIGNFGLSWNQQVTQMALWAIMAAPLFMSNDLRHISPQAKALLQDKDVIAINQDPLGKQGYQLRQGDNFEVWERPLSGLAWAVAMINRQEIGGPRSYTIAVASLGKGVACNPACFITQLLPVKRKLGFYEWTSRLRSHINPTGTVLLQLENTMQMSLKDLL
Absolute increase (% WT): 21.4 % WT
Relative increase: 1.2
10 μM migalastat α-Gal A activity (% WT): 114.8 ± 8 % WT
Baseline α-Gal A activity (% WT): 93.4 ± 6.3 % WT
Baseline α-Gal A activity: 32963 ± 1757 nmol/mg/h
10 μM migalastat α-Gal A activity: 41024 ± 3001 nmol/mg/h

— US11833164B2, “Methods of treating Fabry disease in patients having a mutation in the GLA gene” (Amicus Therapeutics, Inc., priority 2019, dated 2023)
